B1: VHH52-GFP (control nanobody elicited against the influenza nucleoprotein, fused to GFP) (VHH)
VHH: QVQLQESGGGLVQAGGSLRLTCALSERTSTSYAQGWFRQPPGKEREFVASLRTHDGNTHYTDSVKGRFTISRDNAENTLYLQMNSLKTEDTAVYYCAASLGYSGAYASGYDYWGQGTQVTVSS

Molecular target: HIV-1 precursor Gag (PrGag) protein (HIV-1) (UniProt P04591)
Test: dual fluorescence microscopy of virus-like particles

| Molecule | percent of CA positive particles that were also GFP positive |
| --- | --- |
| EGFP-Vpr (from UniProt P12520 1-96) (natural protein) | 39.1% |
| B1 | 0.1% |

— publication PMC8419096
